B1: Tektin-4 (Homo sapiens), Q8WW24 (parent)
chain: MAQTVPPCELPCKEYDVARNTGAYTSSGLATASFRTSKYLLEEWFQNCYARYHQAFADRDQSERQRHESQQLATETQALAQRTQQDSTRTVGERLQDTHSWKSELQREMEALAAETNLLLAQKQRLERALDATEVPFSITTDNLQCRERREHPNLVRDHVETELLKEAELIRNIQELLKRTIMQAVSQIRLNREHKETCEMDWSDKMEAYNIDETCGRHHSQSTEVQAHPYSTTFQESASTPETRAKFTQDNLCRAQRERLASANLRVLVDCILRDTSEDLRLQCDAVNLAFGRRCEELEDARYKLHHHLHKTLREITDQEHNVAALKQAIKDKEAPLHVAQTRLYLRSHRPNMELCRDAAQFRLLSEVEELNMSLTALREKLLEAEQSLRNLEDIHMSLEKDIAAMTNSLFIDRQKCMAHRTRYPTILQLAGYQ
partner: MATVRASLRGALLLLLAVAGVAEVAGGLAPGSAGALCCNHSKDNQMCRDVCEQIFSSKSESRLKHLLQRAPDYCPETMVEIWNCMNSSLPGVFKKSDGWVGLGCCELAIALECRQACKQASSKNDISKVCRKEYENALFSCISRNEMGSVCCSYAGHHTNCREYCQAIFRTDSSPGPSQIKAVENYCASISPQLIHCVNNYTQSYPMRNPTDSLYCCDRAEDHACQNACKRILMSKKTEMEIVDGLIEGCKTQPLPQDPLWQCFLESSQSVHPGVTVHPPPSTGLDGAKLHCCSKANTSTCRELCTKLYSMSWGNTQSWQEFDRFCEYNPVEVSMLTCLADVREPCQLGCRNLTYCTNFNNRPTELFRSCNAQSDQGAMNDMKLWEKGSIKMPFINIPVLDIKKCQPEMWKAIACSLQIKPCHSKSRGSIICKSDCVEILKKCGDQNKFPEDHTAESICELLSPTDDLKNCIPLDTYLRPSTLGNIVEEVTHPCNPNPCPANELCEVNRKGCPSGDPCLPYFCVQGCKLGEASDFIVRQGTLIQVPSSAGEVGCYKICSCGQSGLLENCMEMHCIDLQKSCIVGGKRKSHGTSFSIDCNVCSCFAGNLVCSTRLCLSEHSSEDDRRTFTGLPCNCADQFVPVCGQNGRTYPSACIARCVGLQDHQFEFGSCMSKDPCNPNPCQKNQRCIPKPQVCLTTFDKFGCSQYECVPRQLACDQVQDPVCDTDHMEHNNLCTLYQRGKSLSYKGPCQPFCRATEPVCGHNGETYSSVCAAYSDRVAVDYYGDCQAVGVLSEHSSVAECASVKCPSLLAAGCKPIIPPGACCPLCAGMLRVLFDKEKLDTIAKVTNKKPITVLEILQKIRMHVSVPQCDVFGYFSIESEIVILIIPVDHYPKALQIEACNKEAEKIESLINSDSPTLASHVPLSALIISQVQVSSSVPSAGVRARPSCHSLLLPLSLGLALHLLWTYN
B2: MYG1 exonuclease (Homo sapiens), Q9HB07 (parent)
chain: MGHRFLRGLLTLLLPPPPLYTRHRMLGPESVPPPKRSRSKLMAPPRIGTHNGTFHCDEALACALLRLLPEYRDAEIVRTRDPEKLASCDIVVDVGGEYDPRRHRYDHHQRSFTETMSSLSPGKPWQTKLSSAGLIYLHFGHKLLAQLLGTSEEDSMVGTLYDKMYENFVEEVDAVDNGISQWAEGEPRYALTTTLSARVARLNPTWNHPDQDTEAGFKRAMDLVQEEFLQRLDFYQHSWLPARALVEEALAQRFQVDPSGEIVELAKGACPWKEHLYHLESGLSPPVAIFFVIYTDQAGQWRIQCVPKEPHSFQSRLPLPEPWRGLRDEALDQVSGIPGCIFVHASGFIGGHRTREGALSMARATLAQRSYLPQIS
B3: Zinc finger protein 774 (Homo sapiens), Q6NX45 (parent)
chain: MWLGTSGKSGLPGHCLENPLQECHPAQLEEWALKGISRPSVISQPEQKEEPWVLPLQNFEARKIPRESHTDCEHQVAKLNQDNSETAEQCGTSSERTNKDLSHTLSWGGNWEQGLELEGQHGTLPGEGQLESFSQERDLNKLLDGYVGEKPMCAECGKSFNQSSYLIRHLRTHTGERPYTCIECGKGFKQSSDLVTHRRTHTGEKPYQCKGCEKKFSDSSTLIKHQRTHTGERPYECPECGKTFGRKPHLIMHQRTHTGEKPYACLECHKSFSRSSNFITHQRTHTGVKPYRCNDCGESFSQSSDLIKHQRTHTGERPFKCPECGKGFRDSSHFVAHMSTHSGERPFSCPDCHKSFSQSSHLVTHQRTHTGERPFKCENCGKGFADSSALIKHQRIHTGERPYKCGECGKSFNQSSHFITHQRIHLGDRPYRCPECGKTFNQRSHFLTHQRTHTGEKPFHCSKCNKSFRQKAHLLCHQNTHLI

Variants of: B1
Details: with reck_human RECK

Row | effect of a mutation on the interaction | Variant
1 | disrupting interaction strength | MAQTVPPCELPCKEYDVARNTGAYTSSGLATASFRTSKYLLEEWFQNCYARYHQAFADRDQSERQRHESQQLATETQALAQRTQQDSTRTVGERLQDTHSWKSELQREMEALAAETNLLLAQKQRLERALDATEVPFSITTDNLQCRERREHPNLVRDHVETELLKEAELIRNIQELLKRTIMQAVSQIRLNREHKETCEMDWSDKMEAYNIDETCGRHHSQSTEVQAHPYSTTFQESASTPETRAKFTQDNLCRAQRERLASANLRVLVDCILRDTSEDLRLQCDAVNLAFGRRCEELEDARYKLHHHLHKTLREITDQEHNVAALKQAIKDKEAPLHVAQTRLYLRSHRPNMELCRDAAQFRLLSEVEELNMSLTALREKLLEAEQSLRNLEDIHMSLEKDTAAMTNSLFIDRQKCMAHRTRYPTILQLAGYQ [I404T]
2 | with no effect | MAQTVPPCELPCKEYDVARNTGAYTSSGLATASFRTSKYLLEEWFQNCYARYHQAFADRDQSERQRHESQQLATETQALAQRTQQDSTRTVGERLQDTHSWKSELQREMEALAAETNLLLAQKQRLERALDATEVPFSITTDNLQCRERREHPNLVRDHVETELLKEAELIRNIQELLKRTIMQAVSQIRLNREHKETCEMDWSDKMEAYNIDETCGRHHSQSTEVQAHPYSTTFQESASTPETRAKFTQDNLCRAQRERLASANLRVLVDCILRDTSEDLRLQCDAVNLAFGRRCEELEDARYKLHHHLHKTLREITDQEHNVAALKQAIKDKEAPLHVAQTRLYLRSHRPNMELCRDAAQFRLLSEVEELNMSLTALREKLLEAEQSLRNLEDIHMSLEKNIAAMTNSLFIDRQKCMAHRTRYPTILQLAGYQ [D403N]

Variants of: B2
Details: with atrap_human AGTRAP

Row | effect of a mutation on the interaction | Variant
3 | with no effect | MGHRFLRGLLTLLLPPPPLYTRHRMLGPESVPPPKRSRSKLMAPPRIGTHNGTFHCDEALACALLRLLPEYRDAEIVRTRDPEKLASCDIVVDVGGEYDPRRHRYDHHQRSFTETMSSLSPGKPWQTKLSSAGLIYLHFGHKLLAQLLGTSEEDSMVGTLYDKMYENFVEEVDAVDNGISQWAEGEPQYALTTTLSARVARLNPTWNHPDQDTEAGFKRAMDLVQEEFLQRLDFYQHSWLPARALVEEALAQRFQVDPSGEIVELAKGACPWKEHLYHLESGLSPPVAIFFVIYTDQAGQWRIQCVPKEPHSFQSRLPLPEPWRGLRDEALDQVSGIPGCIFVHASGFIGGHRTREGALSMARATLAQRSYLPQIS [R188Q]

Variants of: B3
Details: with ldoc1_human LDOC1, O95751
Sequence of ldoc1_human LDOC1, O95751 (O95751 whole entry): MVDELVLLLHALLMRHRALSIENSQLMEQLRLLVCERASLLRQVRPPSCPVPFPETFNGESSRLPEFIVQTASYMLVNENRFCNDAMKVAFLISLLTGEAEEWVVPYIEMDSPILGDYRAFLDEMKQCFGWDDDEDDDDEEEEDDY

Row | effect of a mutation on the interaction | Variant
4 | disrupting interaction strength | MWLGTSGKSGLPGHCLENPLQECHPAQLEEWALKGISRPSVISQPEQKEEPWVLPLQNFEARKIPRESHTDCEHQVAKLNQDNSETAEQCGTSSERTNKDLSHTLSWGGNWEQGLELEGQHGTLPGEGQLESFSQERDLNKLLDGYVGEKPMCAECGKSFNQSSYLIRHLRTHTGERPYTCIECGKGFKQSSDLVTHRRTHTGEKPYQCKGCEKKFSDSSTLIKHQRTHTGERPYECPECGKTFGRKPHLIMHQRTHTGEKPYACLECHKSFSRSSNFITHQRTHTGVKPYRCNDCGESFSQSSDLIKHQRTHTGERPFKCPECGKGFRDSSHFVAHMSTHSGERPFSCPDCHKSFSQSSHLVTHQRTHTGERPFKCENCGKGFADSSALIKHQRIHTGERPYKCGECGKSFNQSSHFITHQRIHLGDRPYRCPECGKTFNQRSHFLTHQRTHTGEKPFHCSKCNKSFCQKAHLLCHQNTHLI [R469C]
5 | with no effect | MWLGTSGKSGLPGHCLENPLQECHPAQLEEWALKGISRPSVISQPEQKEEPWVLPLQNFEARKIPRESHTDCEHQVAKLNQDNSETAEQCGTSSERTNKDLSHTLSWGGNWEQGLELEGQHGTLPGEGQLESFSQERDLNKLLDGYIGEKPMCAECGKSFNQSSYLIRHLRTHTGERPYTCIECGKGFKQSSDLVTHRRTHTGEKPYQCKGCEKKFSDSSTLIKHQRTHTGERPYECPECGKTFGRKPHLIMHQRTHTGEKPYACLECHKSFSRSSNFITHQRTHTGVKPYRCNDCGESFSQSSDLIKHQRTHTGERPFKCPECGKGFRDSSHFVAHMSTHSGERPFSCPDCHKSFSQSSHLVTHQRTHTGERPFKCENCGKGFADSSALIKHQRIHTGERPYKCGECGKSFNQSSHFITHQRIHLGDRPYRCPECGKTFNQRSHFLTHQRTHTGEKPFHCSKCNKSFRQKAHLLCHQNTHLI [V147I]
6 | with no effect | MWLGTSGKSGLPGHCLENPLQECHPAQLEEWALKGISRPSVISQPEQKEEPWVLPLQNFEARKIPRESHTDCEHQVAKLNQDNSETAEQCGTSSERTNKDLSHTLSWGGNWEQGLELEGQHGTLPGEGQLESFSQERDLNKLLDGYVGEKPMCAECGKSFNQSSYLIRHLRTHTGERPYTCIACGKGFKQSSDLVTHRRTHTGEKPYQCKGCEKKFSDSSTLIKHQRTHTGERPYECPECGKTFGRKPHLIMHQRTHTGEKPYACLECHKSFSRSSNFITHQRTHTGVKPYRCNDCGESFSQSSDLIKHQRTHTGERPFKCPECGKGFRDSSHFVAHMSTHSGERPFSCPDCHKSFSQSSHLVTHQRTHTGERPFKCENCGKGFADSSALIKHQRIHTGERPYKCGECGKSFNQSSHFITHQRIHLGDRPYRCPECGKTFNQRSHFLTHQRTHTGEKPFHCSKCNKSFRQKAHLLCHQNTHLI [E183A]

Variants of: B3
Details: with trim1_human MID2, Q9UJV3
Sequence of trim1_human MID2, Q9UJV3 (Q9UJV3 whole entry): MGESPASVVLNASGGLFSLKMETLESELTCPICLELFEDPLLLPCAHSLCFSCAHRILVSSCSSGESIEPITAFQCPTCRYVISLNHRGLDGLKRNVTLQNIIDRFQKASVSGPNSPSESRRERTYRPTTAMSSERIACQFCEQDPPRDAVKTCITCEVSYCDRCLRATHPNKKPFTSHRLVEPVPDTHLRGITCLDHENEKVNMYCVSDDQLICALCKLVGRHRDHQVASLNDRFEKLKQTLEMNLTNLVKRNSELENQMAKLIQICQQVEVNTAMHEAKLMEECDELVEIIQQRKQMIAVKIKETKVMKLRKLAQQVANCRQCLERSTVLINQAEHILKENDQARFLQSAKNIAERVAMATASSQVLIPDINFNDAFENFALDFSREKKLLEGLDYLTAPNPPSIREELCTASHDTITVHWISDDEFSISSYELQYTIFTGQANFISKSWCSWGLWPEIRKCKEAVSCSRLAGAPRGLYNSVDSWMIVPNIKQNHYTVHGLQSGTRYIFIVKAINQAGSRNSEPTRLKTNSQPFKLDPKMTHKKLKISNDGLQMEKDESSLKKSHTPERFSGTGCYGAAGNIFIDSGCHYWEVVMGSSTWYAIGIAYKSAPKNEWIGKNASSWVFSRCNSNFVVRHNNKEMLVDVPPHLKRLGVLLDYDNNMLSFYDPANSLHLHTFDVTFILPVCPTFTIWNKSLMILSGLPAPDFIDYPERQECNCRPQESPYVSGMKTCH

Row | effect of a mutation on the interaction | Variant
7 | with no effect | MWLGTSGKSGLPGHCLENPLQECHPAQLEEWALKGISRPSVISQPEQKEEPWVLPLQNFEARKILRESHTDCEHQVAKLNQDNSETAEQCGTSSERTNKDLSHTLSWGGNWEQGLELEGQHGTLPGEGQLESFSQERDLNKLLDGYVGEKPMCAECGKSFNQSSYLIRHLRTHTGERPYTCIECGKGFKQSSDLVTHRRTHTGEKPYQCKGCEKKFSDSSTLIKHQRTHTGERPYECPECGKTFGRKPHLIMHQRTHTGEKPYACLECHKSFSRSSNFITHQRTHTGVKPYRCNDCGESFSQSSDLIKHQRTHTGERPFKCPECGKGFRDSSHFVAHMSTHSGERPFSCPDCHKSFSQSSHLVTHQRTHTGERPFKCENCGKGFADSSALIKHQRIHTGERPYKCGECGKSFNQSSHFITHQRIHLGDRPYRCPECGKTFNQRSHFLTHQRTHTGEKPFHCSKCNKSFRQKAHLLCHQNTHLI [P65L]
